The conditions of the series: Escherichia coli (strain K12); pH 7; 4 °C; GdnHCl; CD; PBS; whole UniProt chain shown.

This is an account of results in FireProtDB (doi:10.1006/jmbi.2000.3776).

B1: Major outer membrane lipoprotein Lpp wild type, P69776 (protein)
chain: MKATKLVLGAVILGSTLLAGCSSNAKIDQLSSDVQTLNAKVDQLSNDVNAMRSDVQAAKDDAARANQRLDNMATKYRK
For B1, the unfolding free energy is 18.8 kcal/mol.
